In assay [1] the target is interleukin-4 receptor alpha (IL-4Rα). Kind of assay: binding affinity, method not stated.
Assay [2] addresses T1, fibroblast growth factor receptor 3 (FGFR3).
T1 chain: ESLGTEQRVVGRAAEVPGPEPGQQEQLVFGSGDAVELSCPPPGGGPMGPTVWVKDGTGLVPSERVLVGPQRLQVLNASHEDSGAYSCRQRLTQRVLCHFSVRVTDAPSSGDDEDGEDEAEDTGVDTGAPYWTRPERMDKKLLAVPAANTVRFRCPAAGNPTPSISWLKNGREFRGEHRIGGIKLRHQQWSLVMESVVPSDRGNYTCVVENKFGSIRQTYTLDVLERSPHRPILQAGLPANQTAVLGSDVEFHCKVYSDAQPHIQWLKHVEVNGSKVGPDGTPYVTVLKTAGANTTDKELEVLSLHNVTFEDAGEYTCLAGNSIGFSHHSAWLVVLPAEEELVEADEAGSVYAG
As to the kind of experiment: binding affinity, method not stated.

In patent publication US20250387497A1 (PURDUE RESEARCH FOUNDATION, published 2025) one finds Kd data, which are given here for two molecules.

The term Kd denotes the free concentration of one partner at which half of the binding sites on the other are occupied at equilibrium, for simple one-to-one binding. Low readings indicate a tighter complex, high ones a looser complex.

Values joined by “and” are separate entries in the source; they are usually repeats but may differ in a detail not shown here. Equal entries are not always repeated. Bounds are passed on as bounds.

interleukin-4 receptor alpha (IL-4Rα), sequence (chain, as listed by the source): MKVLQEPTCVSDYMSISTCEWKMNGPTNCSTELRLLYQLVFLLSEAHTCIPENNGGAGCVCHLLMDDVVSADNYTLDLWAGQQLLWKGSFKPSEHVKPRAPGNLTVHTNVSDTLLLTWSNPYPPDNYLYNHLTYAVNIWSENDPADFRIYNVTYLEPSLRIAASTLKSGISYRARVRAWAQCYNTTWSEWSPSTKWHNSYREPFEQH

For KLAKLAKKLAKLAK [peptide "I", binding motif for IL-4Rα, KLAKLAKKLAKLAK], in assay [1], the Kd was < 60000 nM and 55900 nM.

On to VSPPLTLGQLLS [peptide "F", binding motif for FGFR3, VSPPLTLGQLLS], for which, in assay [2], the Kd is ~1000 nM and 1000 nM.
